In general, Kd refers to the constant that tells how readily two partners part at equilibrium. The low end stands for a tighter complex, the high end for a looser complex.

The target in assay [1] is T1, human MDGA1 extracellular domain (MDGA1_(ECTO); Gln19-Lys925) (human, UniProt Q8NFP4-1 19-925).
T1 construct: human MAM domain-containing glycosylphosphatidylinositol anchor protein 1, Gln19-Lys925; Not deglycosylated; also called human MDGA1_(ECTO); source: HEK293T, transient transfection, purified (IMAC, SEC)
T1 sequence (looked up): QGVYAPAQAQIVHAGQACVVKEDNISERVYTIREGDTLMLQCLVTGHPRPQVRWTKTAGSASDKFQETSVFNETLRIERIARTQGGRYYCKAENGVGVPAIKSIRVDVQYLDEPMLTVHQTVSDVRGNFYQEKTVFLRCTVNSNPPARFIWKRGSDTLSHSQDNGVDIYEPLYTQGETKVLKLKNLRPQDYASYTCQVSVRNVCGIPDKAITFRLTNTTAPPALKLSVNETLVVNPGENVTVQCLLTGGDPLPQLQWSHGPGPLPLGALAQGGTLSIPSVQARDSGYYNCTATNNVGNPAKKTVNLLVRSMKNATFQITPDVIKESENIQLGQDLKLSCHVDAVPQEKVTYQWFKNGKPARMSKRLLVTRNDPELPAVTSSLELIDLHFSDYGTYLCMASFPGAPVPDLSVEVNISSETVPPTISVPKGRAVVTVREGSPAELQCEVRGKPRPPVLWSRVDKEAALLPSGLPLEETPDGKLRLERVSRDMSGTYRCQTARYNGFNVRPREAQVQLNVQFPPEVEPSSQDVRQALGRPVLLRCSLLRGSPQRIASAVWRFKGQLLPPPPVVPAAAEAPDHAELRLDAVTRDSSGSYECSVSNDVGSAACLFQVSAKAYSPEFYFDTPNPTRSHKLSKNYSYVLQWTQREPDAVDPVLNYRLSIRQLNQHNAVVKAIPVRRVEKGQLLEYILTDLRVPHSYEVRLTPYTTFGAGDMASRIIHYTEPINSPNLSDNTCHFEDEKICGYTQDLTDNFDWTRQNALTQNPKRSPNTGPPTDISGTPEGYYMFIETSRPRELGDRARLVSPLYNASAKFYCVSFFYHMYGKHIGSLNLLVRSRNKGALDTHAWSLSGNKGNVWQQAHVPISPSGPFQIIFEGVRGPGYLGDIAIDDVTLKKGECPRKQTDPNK
Kind of assay: SPR; biotinylated NL_(ECTO)-Avitag variants captured from dialysed conditioned medium on streptavidin CM5 chip (500 RU; 550 RU for the ΔSite series; 1000 RU for NL3 and NL3 Arg451Cys in the R451C series); β-NRX1_(LNS6)(±4), MDGA1_(ECTO), MDGA2_(ECTO) injected, 15 concentrations, two-fold series from 50 μM; TBS-CTB (10 mM Tris pH 7.4, 150 mM NaCl, 3 mM CaCl2, 0.005% Tween-20, 1.0 g/L BSA); equilibrium analysis, 1:1 …. The settings on record: both partners purified. (In SPR one partner is held on a chip, and binding of the other changes the refractive index at the surface.)

Assay [2] deals with T2, human MDGA2 extracellular domain (MDGA2_(ECTO); Gln21-Lys927) (human, UniProt Q7Z553 21-927).
T2 construct: human MAM domain-containing glycosylphosphatidylinositol anchor protein 2, Gln21-Lys927; Not deglycosylated; source: HEK293T, transient transfection, purified (IMAC, SEC)
T2 sequence (looked up): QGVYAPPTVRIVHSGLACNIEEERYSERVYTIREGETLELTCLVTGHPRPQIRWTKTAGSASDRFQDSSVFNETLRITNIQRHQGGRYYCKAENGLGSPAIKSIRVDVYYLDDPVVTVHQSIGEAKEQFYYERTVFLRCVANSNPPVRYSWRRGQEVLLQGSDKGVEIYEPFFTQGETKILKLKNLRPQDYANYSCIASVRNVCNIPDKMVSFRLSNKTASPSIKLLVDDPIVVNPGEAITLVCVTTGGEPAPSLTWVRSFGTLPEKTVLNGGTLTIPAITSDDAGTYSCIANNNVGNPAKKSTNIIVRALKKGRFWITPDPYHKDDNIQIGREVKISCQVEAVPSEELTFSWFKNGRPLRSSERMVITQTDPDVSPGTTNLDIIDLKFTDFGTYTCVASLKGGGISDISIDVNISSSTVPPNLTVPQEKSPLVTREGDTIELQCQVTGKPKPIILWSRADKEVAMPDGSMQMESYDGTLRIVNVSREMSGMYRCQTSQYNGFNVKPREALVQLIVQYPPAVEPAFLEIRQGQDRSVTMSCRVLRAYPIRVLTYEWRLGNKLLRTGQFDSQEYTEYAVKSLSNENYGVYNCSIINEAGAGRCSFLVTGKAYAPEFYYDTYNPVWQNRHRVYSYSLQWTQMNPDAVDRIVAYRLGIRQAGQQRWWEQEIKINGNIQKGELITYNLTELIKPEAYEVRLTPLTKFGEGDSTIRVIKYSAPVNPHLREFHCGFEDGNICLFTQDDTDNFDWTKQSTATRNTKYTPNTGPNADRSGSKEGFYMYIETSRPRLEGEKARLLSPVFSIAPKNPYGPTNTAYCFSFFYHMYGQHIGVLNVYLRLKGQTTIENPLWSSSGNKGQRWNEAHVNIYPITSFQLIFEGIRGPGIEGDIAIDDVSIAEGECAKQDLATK
The assay is described as above. As to conditions: both partners purified.

B1: human NL5_(ECTO) (NL4(Y); Gln42-Glu602), immobilised for SPR (domain or fragment)
chain: QAQYPVVNTNYGKIQGLRTPLPSEILGPVEQYLGVPYASPPTGERRFQPPESPSSWTGIRNATQFSAVCPQHLDERFLLHDMLPIWFTTSLDTLMTYVQDQNEDCLYLNIYVPMEDDIHEQNSKKPVMVYIHGGSYMEGTGNMIDGSILASYGNVIVITINYRLGILGFLSTGDQAAKGNYGLLDQIQALRWIEENVGAFGGDPKRVTIFGSGAGASCVSLLTLSHYSEGLFQKAIIQSGTALSSWAVNYQPAKYTRILADKVGCNMLDTTDMVECLKNKNYKELIQQTITPATYHIAFGPVIDGDVIPDDPQILMEQGEFLNYDIMLGVNQGEGLKFVDGIVDNEDGVTPNDFDFSVSNFVDNLYGYPEGKDTLRETIKFMYTDWADKENPETRRKTLVALFTDHQWVAPAVATADLHAQYGSPTYFYAFYHHCQSEMKPSWADSAHGDEVPYVFGIPMIGPTELFSCNFSKNDVMLSAVVMTYWTNFAKTGDPNQPVPQDTKFIHTKPNRFEEVAWSKYNPKDQLYLHIGLKPRVRDHYRATKVAFWLELVPHLHNLNE
modifications: biotin on the Avitag (in vivo biotinylation by BirA)
notes: human neuroligin-5 (neuroligin-4, Y-linked), Gln42-Glu602; source: HEK293T, co-transfected with ER-resident BirA; dialysed conditioned medium, captured on streptavidin chip
In the case of B1, the binding result in assay [1] and in assay [2] was “binds” each time.

B2: human NL2(–A)_(ECTO) (Glu38-His612), immobilised for SPR (domain or fragment, UniProt Q8NFZ4 38-612, looked up)
chain: EERFPVVNTAYGRVRGVRRELNNEILGPVVQFLGVPYATPPLGARRFQPPEAPASWPGVRNATTLPPACPQNLHGALPAIMLPVWFTDNLEAAATYVQNQSEDCLYLNLYVPTEDDIRDPGKKPVMLFLHGGSYMEGTGNMFDGSVLAAYGNVIVATLNYRLGVLGFLSTGDQAAKGNYGLLDQIQALRWLSENIAHFGGDPERITIFGSGAGASCVNLLILSHHSEGLFQKAIAQSGTAISSWSVNYQPLKYTRLLAAKVGCDREDSAEAVECLRRKPSRELVDQDVQPARYHIAFGPVVDGDVVPDDPEILMQQGEFLNYDMLIGVNQGEGLKFVEDSAESEDGVSASAFDFTVSNFVDNLYGYPEGKDVLRETIKFMYTDWADRDNGEMRRKTLLALFTDHQWVAPAVATAKLHADYQSPVYFYTFYHHCQAEGRPEWADAAHGDELPYVFGVPMVGATDLFPCNFSKNDVMLSAVVMTYWTNFAKTGDPNQPVPQDTKFIHTKPNRFEEVVWSKFNSKEKQYLHIGLKPRVRDNYRANKVAFWLELVPHLHNLH
modifications: biotin on the Avitag (in vivo biotinylation by BirA)
notes: also called NL2_(ECTO); source: HEK293T, co-transfected with ER-resident BirA; dialysed conditioned medium, captured on streptavidin chip
On to B2, for which the figures for the Kd in assay [1] and in assay [2] were around 2000 nM and around 1000 nM, respectively.

B3: human NL2(+A)_(ECTO), immobilised for SPR (domain or fragment, UniProt Q8NFZ4 38-612, looked up)
chain: EERFPVVNTAYGRVRGVRRELNNEILGPVVQFLGVPYATPPLGARRFQPPEAPASWPGVRNATTLPPACPQNLHGALPAIMLPVWFTDNLEAAATYVQNQSEDCLYLNLYVPTEDGPLTKKRDEATLNPPDTDIRDPGKKPVMLFLHGGSYMEGTGNMFDGSVLAAYGNVIVATLNYRLGVLGFLSTGDQAAKGNYGLLDQIQALRWLSENIAHFGGDPERITIFGSGAGASCVNLLILSHHSEGLFQKAIAQSGTAISSWSVNYQPLKYTRLLAAKVGCDREDSAEAVECLRRKPSRELVDQDVQPARYHIAFGPVVDGDVVPDDPEILMQQGEFLNYDMLIGVNQGEGLKFVEDSAESEDGVSASAFDFTVSNFVDNLYGYPEGKDVLRETIKFMYTDWADRDNGEMRRKTLLALFTDHQWVAPAVATAKLHADYQSPVYFYTFYHHCQAEGRPEWADAAHGDELPYVFGVPMVGATDLFPCNFSKNDVMLSAVVMTYWTNFAKTGDPNQPVPQDTKFIHTKPNRFEEVVWSKFNSKEKQYLHIGLKPRVRDNYRANKVAFWLELVPHLHNLH
modifications: biotin on the Avitag (in vivo biotinylation by BirA)
notes: source: HEK293T, co-transfected with ER-resident BirA; dialysed conditioned medium, captured on streptavidin chip
Take B3: the binding result in assay [1] and in assay [2] was “binds” in each case.

B4: human NL4_(ECTO) (NL4(X); Gln42-Glu602), immobilised for SPR (domain or fragment)
chain: QAQYPVVNTNYGKIRGLRTPLPNEILGPVEQYLGVPYASPPTGERRFQPPEPPSSWTGIRNTTQFAAVCPQHLDERSLLHDMLPIWFTANLDTLMTYVQDQNEDCLYLNIYVPTEDDIHDQNSKKPVMVYIHGGSYMEGTGNMIDGSILASYGNVIVITINYRLGILGFLSTGDQAAKGNYGLLDQIQALRWIEENVGAFGGDPKRVTIFGSGAGASCVSLLTLSHYSEGLFQKAIIQSGTALSSWAVNYQPAKYTRILADKVGCNMLDTTDMVECLRNKNYKELIQQTITPATYHIAFGPVIDGDVIPDDPQILMEQGEFLNYDIMLGVNQGEGLKFVDGIVDNEDGVTPNDFDFSVSNFVDNLYGYPEGKDTLRETIKFMYTDWADKENPETRRKTLVALFTDHQWVAPAVATADLHAQYGSPTYFYAFYHHCQSEMKPSWADSAHGDEVPYVFGIPMIGPTELFSCNFSKNDVMLSAVVMTYWTNFAKTGDPNQPVPQDTKFIHTKPNRFEEVAWSKYNPKDQLYLHIGLKPRVRDHYRATKVAFWLELVPHLHNLNE
modifications: biotin on the Avitag (in vivo biotinylation by BirA)
notes: human neuroligin-4 (X-linked), Gln42-Glu602; source: HEK293T, co-transfected with ER-resident BirA; dialysed conditioned medium, captured on streptavidin chip
In the case of B4, the binding result in assay [1] and in assay [2] was “binds” in each case.

B5: human NL3(–A)_(ECTO) (Gln38-Asp636), immobilised for SPR (domain or fragment, UniProt Q9NZ94-1 38-636, looked up)
chain: QAPAPTVNTHFGKLRGARVPLPSEILGPVDQYLGVPYAAPPIGEKRFLPPEPPPSWSGIRNATHFPPVCPQNIHTAVPEVMLPVWFTANLDIVATYIQEPNEDCLYLNVYVPTEDDIRDSGAKPVMVYIHGGSYMEGTGNMIDGSILASYGNVIVITLNYRVGVLGFLSTGDQAAKGNYGLLDQIQALRWVSENIAFFGGDPRRITVFGSGIGASCVSLLTLSHHSEGLFQRAIIQSGSALSSWAVNYQPVKYTSLLADKVGCNVLDTVDMVDCLRQKSAKELVEQDIQPARYHVAFGPVIDGDVIPDDPEILMEQGEFLNYDIMLGVNQGEGLKFVEGVVDPEDGVSGTDFDYSVSNFVDNLYGYPEGKDTLRETIKFMYTDWADRDNPETRRKTLVALFTDHQWVEPSVVTADLHARYGSPTYFYAFYHHCQSLMKPAWSDAAHGDEVPYVFGVPMVGPTDLFPCNFSKNDVMLSAVVMTYWTNFAKTGDPNKPVPQDTKFIHTKANRFEEVAWSKYNPRDQLYLHIGLKPRVRDHYRATKVAFWKHLVPHLYNLHD
modifications: biotin on the Avitag (in vivo biotinylation by BirA)
notes: also called NL3_(ECTO); source: HEK293T, co-transfected with ER-resident BirA; dialysed conditioned medium, captured on streptavidin chip
In the case of B5, the binding result in assay [1] and in assay [2] was “binds” each time.

B6: human NL3(+A1)_(ECTO), immobilised for SPR (domain or fragment, UniProt Q9NZ94-1 38-636, looked up)
chain: QAPAPTVNTHFGKLRGARVPLPSEILGPVDQYLGVPYAAPPIGEKRFLPPEPPPSWSGIRNATHFPPVCPQNIHTAVPEVMLPVWFTANLDIVATYIQEPNEDCLYLNVYVPTEDVKRISKECARKPNKKICRKGDIRDSGAKPVMVYIHGGSYMEGTGNMIDGSILASYGNVIVITLNYRVGVLGFLSTGDQAAKGNYGLLDQIQALRWVSENIAFFGGDPRRITVFGSGIGASCVSLLTLSHHSEGLFQRAIIQSGSALSSWAVNYQPVKYTSLLADKVGCNVLDTVDMVDCLRQKSAKELVEQDIQPARYHVAFGPVIDGDVIPDDPEILMEQGEFLNYDIMLGVNQGEGLKFVEGVVDPEDGVSGTDFDYSVSNFVDNLYGYPEGKDTLRETIKFMYTDWADRDNPETRRKTLVALFTDHQWVEPSVVTADLHARYGSPTYFYAFYHHCQSLMKPAWSDAAHGDEVPYVFGVPMVGPTDLFPCNFSKNDVMLSAVVMTYWTNFAKTGDPNKPVPQDTKFIHTKANRFEEVAWSKYNPRDQLYLHIGLKPRVRDHYRATKVAFWKHLVPHLYNLHD
modifications: biotin on the Avitag (in vivo biotinylation by BirA)
notes: as for B3
For B6, the binding result in assay [1] and in assay [2] was “binds” each time.

For the origin of these results see paper PMC5563082, “Structural Mechanism for Modulation of Synaptic Neuroligin-Neurexin Signaling by MDGA Proteins” (Neuron, 2017).
